Test results taken from publication doi:10.1101/806364.

Key:
Assay in all cases: selective 80S ribosome footprinting
[1] = biological target: eIF4E (human (endogenous in HeLa)) (UniProt P06730)
[2] = biological target: eIF4G1 (human (endogenous in HeLa)) (UniProt Q04637)
[3] = biological target: eIF3B (human (endogenous in HeLa)) (UniProt P55884)

Measured: decay half-length of the factor on elongating 80S ribosomes

Sequence of UniProt P06730 (P06730 whole entry): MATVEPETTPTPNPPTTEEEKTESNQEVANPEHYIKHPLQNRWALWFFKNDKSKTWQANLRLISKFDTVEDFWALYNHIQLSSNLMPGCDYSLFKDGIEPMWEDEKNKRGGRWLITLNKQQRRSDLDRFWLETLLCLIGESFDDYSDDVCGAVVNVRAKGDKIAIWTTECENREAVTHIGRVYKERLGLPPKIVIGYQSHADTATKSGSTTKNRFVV
Sequence of UniProt Q04637 (Q04637 whole entry): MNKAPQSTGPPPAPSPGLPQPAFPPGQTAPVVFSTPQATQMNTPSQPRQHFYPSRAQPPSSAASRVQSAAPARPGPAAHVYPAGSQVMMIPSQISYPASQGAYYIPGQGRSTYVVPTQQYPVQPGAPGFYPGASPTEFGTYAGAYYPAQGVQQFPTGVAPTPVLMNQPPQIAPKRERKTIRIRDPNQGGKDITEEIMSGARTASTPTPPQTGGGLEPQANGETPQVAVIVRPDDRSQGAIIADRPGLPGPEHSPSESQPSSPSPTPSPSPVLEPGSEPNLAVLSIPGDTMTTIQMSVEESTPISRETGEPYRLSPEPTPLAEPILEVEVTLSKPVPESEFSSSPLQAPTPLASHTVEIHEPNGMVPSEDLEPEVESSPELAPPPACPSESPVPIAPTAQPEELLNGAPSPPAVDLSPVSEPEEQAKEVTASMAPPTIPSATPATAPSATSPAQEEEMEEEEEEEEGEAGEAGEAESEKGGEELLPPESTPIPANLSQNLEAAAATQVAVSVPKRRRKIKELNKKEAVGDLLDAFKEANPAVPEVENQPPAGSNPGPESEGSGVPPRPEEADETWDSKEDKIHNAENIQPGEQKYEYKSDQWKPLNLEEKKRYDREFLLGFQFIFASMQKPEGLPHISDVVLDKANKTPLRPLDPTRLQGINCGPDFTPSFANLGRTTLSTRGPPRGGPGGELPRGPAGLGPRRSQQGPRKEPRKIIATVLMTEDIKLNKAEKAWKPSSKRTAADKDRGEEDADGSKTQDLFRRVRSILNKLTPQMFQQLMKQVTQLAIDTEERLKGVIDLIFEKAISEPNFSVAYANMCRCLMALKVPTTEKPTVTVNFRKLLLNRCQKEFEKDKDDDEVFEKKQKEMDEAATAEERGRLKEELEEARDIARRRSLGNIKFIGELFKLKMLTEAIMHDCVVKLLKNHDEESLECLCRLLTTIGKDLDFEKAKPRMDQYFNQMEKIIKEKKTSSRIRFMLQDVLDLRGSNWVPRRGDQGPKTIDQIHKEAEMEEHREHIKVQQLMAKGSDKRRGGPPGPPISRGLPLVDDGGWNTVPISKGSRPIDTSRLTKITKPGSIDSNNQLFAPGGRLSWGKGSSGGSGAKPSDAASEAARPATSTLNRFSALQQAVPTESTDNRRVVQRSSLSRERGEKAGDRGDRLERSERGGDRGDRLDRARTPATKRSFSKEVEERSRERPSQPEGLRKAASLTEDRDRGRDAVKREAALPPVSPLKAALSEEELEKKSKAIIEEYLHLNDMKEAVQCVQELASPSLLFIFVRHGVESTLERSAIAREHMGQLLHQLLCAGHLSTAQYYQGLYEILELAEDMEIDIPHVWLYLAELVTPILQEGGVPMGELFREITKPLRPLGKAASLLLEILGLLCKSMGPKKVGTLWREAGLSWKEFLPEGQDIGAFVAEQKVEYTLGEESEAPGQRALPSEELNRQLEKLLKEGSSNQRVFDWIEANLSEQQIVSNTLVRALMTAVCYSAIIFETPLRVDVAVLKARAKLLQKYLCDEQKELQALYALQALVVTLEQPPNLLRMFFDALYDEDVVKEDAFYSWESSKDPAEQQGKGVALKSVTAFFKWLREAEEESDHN
Sequence of UniProt P55884 (P55884 whole entry): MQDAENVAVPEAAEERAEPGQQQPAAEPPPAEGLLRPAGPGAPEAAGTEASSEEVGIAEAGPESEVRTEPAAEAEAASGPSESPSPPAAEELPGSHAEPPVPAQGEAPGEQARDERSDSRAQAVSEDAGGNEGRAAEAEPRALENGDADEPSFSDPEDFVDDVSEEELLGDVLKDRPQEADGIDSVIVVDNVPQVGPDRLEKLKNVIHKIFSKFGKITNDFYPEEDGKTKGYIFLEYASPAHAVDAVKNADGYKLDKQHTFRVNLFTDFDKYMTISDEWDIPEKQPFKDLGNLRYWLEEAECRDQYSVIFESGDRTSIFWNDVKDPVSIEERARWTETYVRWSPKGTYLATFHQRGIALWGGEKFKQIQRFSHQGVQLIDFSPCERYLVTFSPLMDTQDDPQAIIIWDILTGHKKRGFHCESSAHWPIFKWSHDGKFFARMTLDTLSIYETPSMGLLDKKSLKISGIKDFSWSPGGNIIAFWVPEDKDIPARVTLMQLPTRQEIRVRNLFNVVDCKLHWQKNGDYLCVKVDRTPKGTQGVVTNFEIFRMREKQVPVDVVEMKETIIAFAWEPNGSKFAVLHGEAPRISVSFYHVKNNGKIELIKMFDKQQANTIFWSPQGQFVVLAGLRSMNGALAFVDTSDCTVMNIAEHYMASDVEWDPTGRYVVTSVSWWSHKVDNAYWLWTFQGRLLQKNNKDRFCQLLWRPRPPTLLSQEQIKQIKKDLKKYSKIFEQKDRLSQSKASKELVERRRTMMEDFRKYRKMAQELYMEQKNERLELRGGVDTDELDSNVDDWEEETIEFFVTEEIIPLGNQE

80S ribosome (complex)
36 nucleotides: all assays above
